Results: patent US20230303685A1 (ELECTRA THERAPEUTICS, published 2023)

T1: Human SIRPγ CHO
T1 construct: also called human SIRPγ on CHO cells
T1 chain: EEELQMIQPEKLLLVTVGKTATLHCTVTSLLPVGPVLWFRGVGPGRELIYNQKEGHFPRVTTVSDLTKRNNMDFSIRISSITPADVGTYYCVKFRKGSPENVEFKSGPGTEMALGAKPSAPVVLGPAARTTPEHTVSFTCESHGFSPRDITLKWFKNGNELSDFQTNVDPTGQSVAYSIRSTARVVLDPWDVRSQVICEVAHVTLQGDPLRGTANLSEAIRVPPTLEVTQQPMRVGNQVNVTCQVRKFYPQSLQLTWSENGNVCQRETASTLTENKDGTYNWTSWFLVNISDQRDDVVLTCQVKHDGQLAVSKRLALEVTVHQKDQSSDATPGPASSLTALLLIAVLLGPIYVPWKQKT

T2: Human SIRPβ1
T2 construct: also called human SIRPβ1 extracellular domain, plate-coated
T2 chain: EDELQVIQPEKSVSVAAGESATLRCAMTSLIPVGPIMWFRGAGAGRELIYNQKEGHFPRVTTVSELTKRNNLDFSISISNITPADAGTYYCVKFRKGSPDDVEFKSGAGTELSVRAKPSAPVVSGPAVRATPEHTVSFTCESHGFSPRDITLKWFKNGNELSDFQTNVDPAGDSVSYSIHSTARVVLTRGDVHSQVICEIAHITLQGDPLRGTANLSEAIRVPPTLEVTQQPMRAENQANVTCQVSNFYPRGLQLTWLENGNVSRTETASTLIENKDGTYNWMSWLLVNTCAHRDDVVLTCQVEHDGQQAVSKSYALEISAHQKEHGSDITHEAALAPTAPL

T3: Human SIRPγ
T3 construct: also called human SIRPγ extracellular domain, plate-coated
T3 chain: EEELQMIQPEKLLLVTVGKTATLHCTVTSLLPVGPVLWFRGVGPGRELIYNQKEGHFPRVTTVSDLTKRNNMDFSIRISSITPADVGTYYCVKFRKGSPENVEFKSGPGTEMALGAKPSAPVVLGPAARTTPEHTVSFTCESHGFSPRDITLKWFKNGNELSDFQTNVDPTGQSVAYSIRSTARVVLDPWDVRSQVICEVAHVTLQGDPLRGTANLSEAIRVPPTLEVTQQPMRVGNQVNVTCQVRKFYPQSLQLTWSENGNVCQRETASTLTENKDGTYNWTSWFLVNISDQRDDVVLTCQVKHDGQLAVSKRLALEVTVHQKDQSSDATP

B1: Antibody 8 (antibody, V domains shown)
VH: QVQLQQWGAGLLKPSETLSLTCAVYGGSFSGYYWSWIRQPPGKGLEWIGEINHSGSTNFNPSLKSRVTISVDTSKNQFSLKLRSVTAADTAVYYCSRVDSGSYPYYDGLDVWGQGTTVTVSS
VL: SSELTQPPSVSVSPGQTASITCSGDKLGDKYVYWYQQKPGQSPVLVIYHDDRRPAGIPERFAGSASGNTATLTISGTQAMDEADYYCQTWDSSTVVFGGGTKLTVL
notes: Human variable region, rat IgG2b Fc; from hybridoma
B2: Antibody 3 (antibody, V domains shown)
VH: QVQLQESGPGLVKPSGTLSLTCAVSGGSISSSNWWSWVRQPPGKGLEWIGEIYHSGNTNYNPSLKSRVTISVDKSKNQFSLKLSSVTAADTAVYYCAREGIEGYYFYYGMDVWGQGTTVTVSS
VL: DIQLTQSPSFLSASVGDRVTITCRASQGISGYLDWYQQKPGKAPKLLIYAASTLQRGVPSRFSGSGSGTDFNLTISSLQPEDFATYYCQQFTSDLITFGQGTRLEIK
notes: as for B1
B3: Antibody 24 (antibody, V domains shown)
VH: QVQLQESGPGLVKPSGTLSLTCAVSGGSISSSNWWSWVRQPPGKGLEWIGEIYHSGNTNYNPSLKSRVTISVDKSKNQFSLKLSSVTAADTAVYYCAREGIEGYYFYYGMDVWGQGTTVTVSS
VL: DIQLTQSPSFLSASVGDRVTITCRASQGISGYLDWYQQKPGKAPKLLIYAASTLQRGVPSRFSGSGSGTDFNLTISSLQPEDFATYYCQQFTSDLITFGQGTRLEIK
notes: Variable regions of Antibody 3
B4: Antibody 14 (antibody, V domains shown)
VH: QVQLVESGGGVVQPGRSLRLSCVASGFIFSNYGMHWVRQAPGKGLEWVAVISYDGRNEDHVDSVKGRFTISRDNSKNTLYLQMNSLRAEDTAVYYCAKGSGSYYFDYWGQGTLVTVSS
VL: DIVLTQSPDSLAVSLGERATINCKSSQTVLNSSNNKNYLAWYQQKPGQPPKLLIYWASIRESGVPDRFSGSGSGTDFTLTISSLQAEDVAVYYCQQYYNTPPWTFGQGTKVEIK
notes: as for B1
B5: Antibody 23 (antibody, V domains shown)
VH: QVQLQESGPGLVKPSGTLSLTCAVSGGSISSSNWWSWVRQPPGKGLEWIGEIYHSGSTNYNPSLKSRVTISVDKSKNQFSLKLSSVTAADTAVYYCARRGIWFGVGPWGQGTLVTVSS
VL: DIVMTQSPLSLPVTPGEPASISCRSSQSLLHGNGFNYLDWYLQKPGQSPQLLIYLGSNRASGVPDRFTGSGSGTDFTLKISRVEAEDVGVYYCMQGLQTPRTFGQGTKVEIK
notes: Variable regions of Antibody 1
B6: Antibody 9 (antibody, V domains shown)
VH: QVQLQQWGAGLLKPSETLSLTCAVYGGSFSTYYWNWIRQPPGKGLEWIGEINHSGSTNYNPSLKSRVIISVDTSKNQFSLKLSSVTAADTAVYYCASSHYGSGSFPDSYGMDVWGQGTTVTVSA
VL: SYELTQSPSVSVSPGQTASITCSGDKLGDRYAWWYQQKPGQSPVLVIYQDDKRPSGIPERFSGSNSGNTATLTISGTQAMDEADYYCQAWDSSTAVFGGGTKLTVL
notes: as for B1
B7: Antibody 10 (antibody, V domains shown)
VH: EVQLLESGGGLVQPGGSLRLSCAASGFTFSSYAMSWVRQAPGKGLEWVSAISGSGGDTYYADSVKGRFTISRDNSKSTLYLQMNSLRAEDTAVYYCAKDGGSYYPPFDYWGQGTLVTVSS
VL: SYELTQPPSVSVSPGQTASITCSGDKLGDRYACWYQQKPGQSPVLVIYQDTKRPSGIPERFSGSNSGNTATLTISGTQAMDEADYYCQACDSSTAVFGGGTKLTVL
notes: as for B1

Tests used:
[1] = biological target: T4, human SIRPα V1-His monomer (human, UniProt P78324 31-373, limits assumed); experiment: BLI (Octet); antibody on anti-mouse IgG capture tip, SIRP-His monomer at 100, 33.3, 11.1 nM, 1:1 fit, mean KD
T4 construct: 'SIRP-His monomer protein' of the Octet assay; also called SIRP-His; not shown: His tag
Protocol: (§1) Select SIRP antibodies were tested for their affinities to human SIRPα, SIRPβ1, and SIRPγ using a biolayer interferometry (BLI) Octet system (Pall ForteBio). Each SIRP antibody with rat or mouse Fc was immobilized on a biosensor tip by an anti-mouse IgG capture (AMC). Antibodies with human Fc were digested with gingipain K enzyme to yield monomeric F(ab′), biotinylated, then coated onto streptavidin biosensors. […] The biosensors were then exposed to wash buffer to measure off-rate kinetics. The resulting kinetic data were analyzed and fitted using a 1:1 binding model with kₒₙ and kdis fitted separately at each SIRP-His protein concentration. KD affinities were calculated as kdis to kₒₙ ratio at each concentration of SIRP-His and averaged.

[2] = biological target: T5, human SIRPβ1-His monomer (human, UniProt O00241 30-371); experiment: as above
T5 construct: 'SIRP-His monomer protein' of the Octet assay; also called SIRP-His; not shown: His tag
Protocol: as §1

[3] = biological target: T6, human SIRPγ-His monomer (human); experiment: as above
T6 construct: 'SIRP-His monomer protein' of the Octet assay; also called SIRP-His; not shown: His tag
Protocol: as §1

[4] = biological target: T7, Human SIRPβ1/DAP12 CHO; experiment: flow cytometry, stably transfected CHO cells, antibody titrated, labelled anti-rat or anti-mouse IgG, MFI
T7 construct: also called human SIRPβ1 on CHO cells co-transfected with DAP12; copies: 1 + 2
Protocol: (§2) Selected antibodies were tested for binding to stably transfected human SIRPα, SIRPβ1 (co-transfected with DAP12), or SIRPγ Chinese hamster ovary (CHO) cells via flow cytometry. A titration of SIRP antibodies was added to the cells and detected using a fluorescently labelled secondary antibody. Graph depicts the median fluorescence intensity (MFI) at each concentration.

[5] = biological target: T1, Human SIRPγ CHO; experiment: as above
Protocol: as §2

[6] = biological target: T8, Cynomolgus Monkey SIRPγ (Macaca fascicularis); experiment: ELISA, extracellular domain coated at 2 µg/mL, purified antibody titrated, anti-rat or anti-mouse IgG, chemiluminescence
T8 construct: extracellular domain; also called cyno SIRPγ extracellular domain, plate-coated
Protocol: (§3) Select SIRP antibodies were purified by Protein G from hybridoma supernatants and analyzed in a titration via ELISA. Briefly, 2 μg/mL of extracellular domain of each of the SIRPs was coated onto high protein-binding plates and blocked. Purified antibodies were added in a titration to the coated plates. The antibodies were detected by an anti-rat IgG or an anti-mouse IgG antibody and a chemiluminescent substrate.

[7] = biological target: T2, Human SIRPβ1; experiment: as above
Protocol: as §3

[8] = biological target: T3, Human SIRPγ; experiment: as above
Protocol: as §3

[9] = biological target: T9, human SIRPα V1 extracellular domain, monomeric (human, UniProt P78324 31-373); experiment: as above
T9 construct: also called hSIRPα V1
Protocol: as §3

[10] = biological target: T10, Human SIRPγ conjugated to an Fc region (human); experiment: BLI blocking; 200 nM antibody pre-incubated with 20 nM SIRPγ-Fc, binding to immobilised CD47-His (competitor), % of response of SIRPγ-Fc alone
T10 construct: also called SIRPγ-Fc; SIRP-Fc; not shown: Fc region

[11] = biological target: T9, human SIRPα V1 extracellular domain, …; experiment: SPR (Biacore); antibody captured by anti-IgG on chip, monomeric SIRPα extracellular domain as analyte, 1:1 model
Protocol: (§4) Selected antibodies were tested for their affinities to two hSIRPα variants (V1 and V2), and to cynomolgus monkey (herein referred to as “cyno”) SIRPα. The affinities of these SIRP antibodies were determined using surface plasmon resonance. The SIRP antibodies were flowed onto a chip and captured by an anti-mouse IgG or an anti-human IgG covalently coupled to the surface of the chip. A three-point titration of the extracellular binding domain of hSIRPα was performed per the manufacturer's recommended protocols.

[12] = biological target: T11, cynomolgus monkey SIRPα extracellular domain, monomeric (cynomolgus monkey, UniProt A0A2K5VYQ9 31-372); experiment: as above
T11 construct: extracellular domain; also called Cyno SIRPα
Protocol: as §4

[13] = biological target: T12, human SIRPα V2 extracellular domain, monomeric (human, UniProt P78324 31-370); experiment: as above
T12 construct: also called hSIRPα V2
Protocol: as §4

[14] = biological target: T3, Human SIRPγ; experiment: ELISA, extracellular domain coated at 1 µg/mL, purified antibody titrated, anti-human IgG, chemiluminescence
Protocol: as §3, with “1” for “2”, “SIRPα” for “of each of the SIRPs”, “IgG” for “IgG or an anti-mouse IgG”
FIGS. 3A-3C show binding curves of SIRP antibodies and two isotype controls with human Fc to human SIRPα V1, human SIRPβ1, human SIRPγ and cynomolgus monkey SIRPα by ELISA. […] Isotype control 1 was an unrelated human IgG1 antibody with irrelevant CDRs. Isotype control 2 was the same as isotype control 1 but contained the same amino acid substitutions in the Fc region as some of the selected SIRP antibodies for increased FcγR binding (referring to Table 11). DNA was transiently transfected into CHO cells for 7 days. Antibodies were purified by Protein A from cell supernatants and analyzed in a titration via ELISA as previously described in FIGS. 2A-2B using an anti-human IgG antibody as the detection antibody.

T7 sequence (DAP12, as listed by the source limits assumed): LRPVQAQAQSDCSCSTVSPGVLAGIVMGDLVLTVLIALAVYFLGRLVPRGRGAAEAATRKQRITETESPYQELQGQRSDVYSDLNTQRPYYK

Row | Binder | Kd [1] | Kd [2] | Kd [3] | binding result [4] | binding result [5] | EC50 (read off the curve) [6] | EC50 (read off the curve) [7] | EC50 (read off the curve) [8] | EC50 (read off the curve) [9] | SIRPγ-CD47 Response (%) [10] | Kd [11] | Kd [12] | EC50 (read off the curve) [5] | Kd [13] | EC50 (read off the curve) [14] | binding result [8]
1 | B1 | 46.6 nM | 78.9 nM | 50 nM | binds | binds | ~0.03 µg/mL | ~0.02 µg/mL | ~0.02 µg/mL | ~0.03 µg/mL | -4.94% |  |  |  |  |  | 
2 | B2 | 3.1 nM | 7500 nM | 103 nM |  |  | ~0.1 µg/mL | ~0.06 µg/mL | ~0.06 µg/mL | ~0.1 µg/mL | -7.23% | 4.57 nM | 513 nM | ~0.2 µg/mL |  |  | 
3 | B3 |  |  |  |  |  |  |  |  |  | -37.9% | 2.89 nM | 15 nM |  | 22.6 nM | ~0.02 µg/mL | 
4 | B4 |  |  | 38.7 nM |  | binds | ~0.09 µg/mL |  | ~0.05 µg/mL |  | 14.4% |  |  |  |  |  | 
5 | B5 |  |  |  |  |  |  |  |  |  |  | 323 nM | 384 nM |  | 374 nM | ~0.04 µg/mL | 
6 | B6 | 1.24 nM |  |  |  | binds |  |  |  |  |  |  |  |  |  |  | binds
7 | B7 | 57.6 nM |  | 1.37 nM |  | binds |  |  |  |  | -4.29% |  |  |  |  |  | binds
